Measurements as given in the supplement of paper PMC9170038.

System: MS2 coat protein
Experiment: apparent KD of MS2 coat protein; designed switch direction (-1 OFF switch, 1 ON switch): -1; higher = weaker reporter binding
In short: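 The apparent KD reported per design is the median over clusters of curve fits to normalised cluster fluorescence. The RNA switches were transcribed on Illumina chips by stalled E. coli RNA polymerase. SNAP-549-labelled MS2 coat protein was titrated from 0.7 or 1.5 nM, doubling up to 3 µM, in Tris-HCl pH 7.5 buffer containing KCl, MgCl2, BSA, DTT, tRNA and Tween-20, with no input, 200 uM small-molecule ligand, or an oligonucleotide input.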

[1] = Eterna round: R95, input ligand: FMN 200 uM
[2] = Eterna round: R95, input ligand: microRNA oligo, concentration not stated
[3] = Eterna round: R95, input ligand: none
[4] = input ligand: microRNA oligo, concentration not stated

AAAUCCGCUGAGGAUAUUAUCAGUGAGAGCUGAUGAGAAGGCGGUACAUGAGGAUCACCCAUGUCUAUGGGCAA [Ex-6 Malc#25] (puzzle: Exclusion 6)
apparent KD of MS2 coat protein [1]: 358 nM
apparent KD of MS2 coat protein [2]: 208 nM
apparent KD of MS2 coat protein [3]: 295 nM

AAAUCGGAGGAGGAUAUCGUACAGGAAACGGUGCGAGAAGGUUUCACAUGAGGAUCACCCAUGUCAAAUAGCGA [EX6 #58] (Eterna round: R97, puzzle: Exclusion 6)
apparent KD of MS2 coat protein (input ligand: FMN 200 uM): 21 nM
apparent KD of MS2 coat protein (input ligand: none): 16.4 nM

AAAUGCAAGUAAAGAUCUUACAUGAGGAUCACCCAUGUGCUCGUCUUAUAAAGUACUAUCACGAAAGUGAUAGUACA [Sensor 3, v1 - 27] (puzzle: Sensor v3, turn-off variant 1)
apparent KD of MS2 coat protein [1]: 18.5 nM
apparent KD of MS2 coat protein [2]: 76.9 nM
apparent KD of MS2 coat protein [3]: 19.3 nM

AAAUUAGCAAGUAGGUCCGACAUGAGGAUCACCCAUGUUAUCUGAAAUAACGCUGCAUGAAAGUGCGCUCGUCUUAG [Sensor-V1 #9] (Eterna round: R97, puzzle: Sensor, turn-off variant 1)
apparent KD of MS2 coat protein (input ligand: FMN 200 uM): 65.3 nM
apparent KD of MS2 coat protein (input ligand: none): 73.9 nM

AAAUUGCUAGAGGAUAUCGGAUAGAAUUUAUUACGAGAAGGUUAGACAUGAGGAUCACCCAUGUUCUGUUGGGA [EX6 #23] (Eterna round: R97, puzzle: Exclusion 6)
apparent KD of MS2 coat protein (input ligand: FMN 200 uM): 70.1 nM
apparent KD of MS2 coat protein (input ligand: none): 29.1 nM

AACAACUCUGUGAGGAUAUGCAAUUGUUGAUCAAGGCAGAAGGCACAUGAGGAUCACCCAUGUUCCUACAAGGG [Reatanan] (puzzle: Brourd's mod of Exclusion 4)
apparent KD of MS2 coat protein [2]: 46.5 nM

AACAAGUGAGGAUAUGAACCACUUGCCCACGCAUGCGUGGAUCAGAAGGCACUUGAGGAUCACCCAAGUCCUAA [Texeusso] (Eterna round: R97, puzzle: Exclusion 4)
apparent KD of MS2 coat protein (input ligand: FMN 200 uM): 49.7 nM
apparent KD of MS2 coat protein (input ligand: none): 21.3 nM

AACAUCGUAGGAUAUUCGUGCUCAGACAUGAGGAUCACCCAUGUUUGGUGGGUUGGAGAAGGAGAAGGGCGAUGGA [EX5 #18] (Eterna round: R97, puzzle: Exclusion 5)
apparent KD of MS2 coat protein (input ligand: FMN 200 uM): 67.9 nM
apparent KD of MS2 coat protein (input ligand: none): 92.8 nM

AACAUGGUAAAGGAUAUUGUCGCAGAAUGCGAUCAAGAAGGUUACACAUGAGGAUCACCCAUGUGGAAUCCAUC [Eternabot (Original) Solution 24] (Eterna round: R97, puzzle: Exclusion 6)
apparent KD of MS2 coat protein (input ligand: FMN 200 uM): 63.2 nM
apparent KD of MS2 coat protein (input ligand: none): 17.2 nM

AACCAGCGAGGAUAUUGUUGAUAAAACAUGAGGAUCACCCAUGUCACGUGAUCUUCCCAACAAGAAGGUGCACUAA [Xeoratdior] (Eterna round: R97, puzzle: Exclusion 5)
apparent KD of MS2 coat protein (input ligand: FMN 200 uM): 652 nM
apparent KD of MS2 coat protein (input ligand: none): 301 nM

AACCCUCGUCAAGGAUAUACAUAGAAAAGCUUGGUAGAAGGUGACAUGAGGAUCACCCAUGUAAAAGGCCUGUCCAUUCAGGCC [Isonce] (Eterna round: R96, puzzle: Exclusion NG 1)
apparent KD of MS2 coat protein (input ligand: FMN 200 uM): 96.4 nM
apparent KD of MS2 coat protein [4]: 67.8 nM
apparent KD of MS2 coat protein (input ligand: none): 78.1 nM

AACCCUGAUGACAAAUUACAUGAGGAUCACCCAUGUGCCUCACAGGAUAUCCCAGCACGUCGCUAGGAGAAGGGUGACGCGCCA [Tienen] (Eterna round: R96, puzzle: Exclusion NG 3)
apparent KD of MS2 coat protein (input ligand: FMN 200 uM): 37.5 nM
apparent KD of MS2 coat protein [4]: 25.1 nM
apparent KD of MS2 coat protein (input ligand: none): 30 nM

AACCGCAUAGGAUAUCGAGCAGAGGACUUGAGGAUCACCCAAGUCCUUGAGUUCUUUGUCCGAGAAGGAUGAACAU [Ususrace] (Eterna round: R97, puzzle: Exclusion 5)
apparent KD of MS2 coat protein (input ligand: FMN 200 uM): 13.7 nM
apparent KD of MS2 coat protein (input ligand: none): 14.6 nM

AACCUGAGGCAAAGCUUUAGGUGUACAUGAGGAUCACCCAUGUAGGAUAUGGUAGGCAAAGCUUACCAGAAGGACAUUGGCGUA [Mat - Exclusion NG 3 - Mod of JL - D41] (Eterna round: R96, puzzle: Exclusion NG 3)
apparent KD of MS2 coat protein (input ligand: FMN 200 uM): 418 nM
apparent KD of MS2 coat protein [4]: 93.8 nM
apparent KD of MS2 coat protein (input ligand: none): 119 nM

AACCUGAGGCUUUGCUUUAGGUGUACAUGAGGAUCACCCAUGUAGGAUAUGGUAGGCAAAGCUUACCAGAAGGACAUGUUAAUU [Mat - Exclusion NG 3 - Mod of JL - D37] (Eterna round: R96, puzzle: Exclusion NG 3)
apparent KD of MS2 coat protein (input ligand: FMN 200 uM): 122 nM
apparent KD of MS2 coat protein [4]: 44.3 nM
apparent KD of MS2 coat protein (input ligand: none): 59.3 nM

AACCUGGCUGUUCACAGGAACAUGAGGAUCACCCAUGUCGUGGGUAGAUCCCUCCCUGGGAAAUCUGCUCGUCUUAU [Cac Sensor turn off v1 sub13] (Eterna round: R97, puzzle: Sensor, turn-off variant 1)
apparent KD of MS2 coat protein (input ligand: FMN 200 uM): 34.6 nM
apparent KD of MS2 coat protein (input ligand: none): 34.2 nM

AACCUUUAGUUAGGAUAUCGCAUCACCGUCAAGUGAGAAGGGACAUGAGGAUCACCCAUGUCUUCCGUGGGCUACACUGCUUCU [Eternabot solution 5] (Eterna round: R96, puzzle: Exclusion NG 1)
apparent KD of MS2 coat protein (input ligand: FMN 200 uM): 19 nM
apparent KD of MS2 coat protein [4]: 19.4 nM
apparent KD of MS2 coat protein (input ligand: none): 27.4 nM

AACGUCGAAGGAUAUACAUGAGGAUCACCCAUGUGGGACCUGUAAUCUCACCCAUCGUGUAGAAGGUUGAGGUA [Learberi] (Eterna round: R97, puzzle: Exclusion 3)
apparent KD of MS2 coat protein (input ligand: FMN 200 uM): 29.9 nM
apparent KD of MS2 coat protein (input ligand: none): 35.6 nM

AACGUGCAGCUUUGCUGUACGCGUACAUGAGGAUCACCCAUGUAGGAUAUGGUACGCAAAGCGUGCUAGAAGGAUAUGGAGAAA [Mat - Exclusion NG 3 - Mod of JL - D82] (Eterna round: R96, puzzle: Exclusion NG 3)
apparent KD of MS2 coat protein (input ligand: FMN 200 uM): 14.7 nM
apparent KD of MS2 coat protein [4]: 11.5 nM
apparent KD of MS2 coat protein (input ligand: none): 16.2 nM

AACGUGGCAAAGGAUAUCCACACGGCAAAGCCGGGAGAAGGUUGCACAUGAGGAUCACCCAUGUGAACCAAACA [Onsozamati] (puzzle: Exclusion 6)
apparent KD of MS2 coat protein [2]: 13.6 nM

AACUGGACAGGAUAUGUUCUUGAGCACUUGAGGAUCACCCAAGUCAUCAAGAACUCAGGCACAGAAGGGUUUAUGU [salish99_ex5_r4_002] (Eterna round: R97, puzzle: Exclusion 5)
apparent KD of MS2 coat protein (input ligand: FMN 200 uM): 45.9 nM
apparent KD of MS2 coat protein (input ligand: none): 13.6 nM

AACUUACAUGAGGAUCACCCAUGUCAGGAUAUCGAAAUUGGCCUGCAAUUACAGGCGACGAGAAGGGACGUUUU [EX1 B.24] (Eterna round: R97, puzzle: Exclusion 1)
apparent KD of MS2 coat protein (input ligand: FMN 200 uM): 29.3 nM
apparent KD of MS2 coat protein (input ligand: none): 16.9 nM

AAGAAACAUGAGGAUCACCCAUGUGAGGAUAUGAAAAAGAAAAGAAAAGAAAGAAGAAUCAGAAGGCACAAAGG [Nebkaure Khety II] (Eterna round: R96, puzzle: Exclusion 1)
apparent KD of MS2 coat protein [4]: 24.3 nM

AAGAAACAUGAGGAUCACCCAUGUGAGGAUAUGAAAAAGAAAAGAAAAGAAAGAAGAAUCAGAAGGCACAAAGG [salish99-ex1_r3_019] (puzzle: Exclusion 1)
apparent KD of MS2 coat protein [1]: 40.5 nM
apparent KD of MS2 coat protein [2]: 30.7 nM
apparent KD of MS2 coat protein [3]: 34 nM

AAGAAACAUGAGGAUCACCCAUGUGAGGAUAUGAACAAGAAAAGAAAAGAAAGAAGAAUCAGAAGGCACAAAGG [salish99-ex1_r3_047] (puzzle: Exclusion 1)
apparent KD of MS2 coat protein [1]: 102 nM
apparent KD of MS2 coat protein [2]: 49.2 nM
apparent KD of MS2 coat protein [3]: 84.7 nM

AAGAAACAUGAGGAUCACCCAUGUGAGGAUAUGACCAAGAAAAGAAAAGAAAGAAGAGUCAGAAGGCACAAAGG [salish99-ex1_r3_066] (puzzle: Exclusion 1)
apparent KD of MS2 coat protein [1]: 99.7 nM
apparent KD of MS2 coat protein [2]: 56.6 nM
apparent KD of MS2 coat protein [3]: 181 nM

AAGAAACAUGAGGAUCACCCAUGUGAGGAUAUGACGAAGAAAAGAAAAGAAAGAAGAUUCAGAAGGCACAAAGG [salish99-ex1_r3_061] (puzzle: Exclusion 1)
apparent KD of MS2 coat protein [1]: 90.1 nM
apparent KD of MS2 coat protein [2]: 42.9 nM
apparent KD of MS2 coat protein [3]: 56.4 nM

AAGAAACAUGAGGAUCACCCAUGUGAGGAUAUGAGCAAGAAAAGAAAAGAAAGAAGAUUCAGAAGGCACAAAGG [salish99-ex1_r3_059] (puzzle: Exclusion 1)
apparent KD of MS2 coat protein [1]: 61.6 nM
apparent KD of MS2 coat protein [2]: 39.4 nM
apparent KD of MS2 coat protein [3]: 59.3 nM

AAGAAACAUGAGGAUCACCCAUGUGAGGAUAUGAUGAAGAAAAGAAAAGAAAGAAGAAUCAGAAGGCACAAAGG [salish99-ex1_r3_043] (puzzle: Exclusion 1)
apparent KD of MS2 coat protein [1]: 83.6 nM
apparent KD of MS2 coat protein [2]: 48.2 nM
apparent KD of MS2 coat protein [3]: 66.5 nM

AAGAAACAUGAGGAUCACCCAUGUGAGGAUAUGUAAAAGAAAAGAAAAGAAAGAAGAAACAGAAGGCACAAAGG [Mat - Mod of Hog D12] (puzzle: Exclusion 1)
apparent KD of MS2 coat protein [1]: 82 nM
apparent KD of MS2 coat protein [2]: 50.7 nM
apparent KD of MS2 coat protein [3]: 45.2 nM

AAGAAACAUGAGGAUCACCCAUGUGAGGAUAUGUAAAAUAAAAGAAAAGAAAGAAUAAACAGAAGGCACAAAGG [Mat - Mod of Hog D14] (puzzle: Exclusion 1)
apparent KD of MS2 coat protein [1]: 69.9 nM
apparent KD of MS2 coat protein [2]: 64.4 nM
apparent KD of MS2 coat protein [3]: 52.6 nM
